The results in this text go back to US20240360228A1 (BIOLEGEND, published 2024).

Experiment [1] deals with T1, human CCR8 (human, UniProt P51685 1-355).
T1 construct: Native CCR8 on human PBMC (CCR8+ CD3+ or CCR8+ CD4+ lymphocytes); also called chemokine (C-C motif) receptor 8
Nature of the experiment: flow blocking, PBMC CCR8+CD4+; competitor PE-AB13. The gist of the method:
(§1)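 Human PBMC (100 μL suspension) were pre-blocked with 10 μg of each unlabelled anti-CCR8 antibody or isotype control. Cells were then stained 15 min in the dark with 0.25 μg of the PE-conjugated competitor antibody plus anti-CD4 or anti-CD3. Read-out by flow cytometry as MFI on CCR8+CD4+ or CCR8+CD3+ lymphocytes.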

For experiment [2], the target named is T1, human CCR8. Nature of the experiment: flow blocking, PBMC CCR8+CD3+; competitor PE-AB12. An outline of the steps: (§2)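 Blocking percentage derives from PE-competitor MFI on CCR8+ CD4+ or CD3+ lymphocytes, expressed relative to isotype-blocked samples and subtracted from 100. Cells received 10 μg unlabeled test antibody or isotype before 15 min dark staining with 0.25 μg PE-conjugated antibody and anti-CD4 or anti-CD3.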

Experiment [3] addresses T1, human CCR8. Nature of the experiment: flow blocking, PBMC CCR8+CD4+; competitor PE-433H. An outline of the steps: as §1
The target of experiment [4] is T1, human CCR8. In words: flow blocking, PBMC CCR8+CD3+; competitor PE-AB11. The gist of the method: as §2
The target in experiment [5] is T1, human CCR8. In words: flow blocking, PBMC CCR8+CD3+; competitor PE-433H. An outline of the steps:
as §2

In experiment [6] the target is T1, human CCR8. Nature of the experiment: flow blocking, PBMC CCR8+CD3+; competitor PE-AB6. An outline of the steps:
as §2

For experiment [7], the target named is T1, human CCR8. In words: flow blocking, PBMC CCR8+CD4+; competitor PE-AB10. The gist of the method:
as §2

The target in experiment [8] is T1, human CCR8. In words: flow blocking, PBMC CCR8+CD4+; competitor PE-AB2. The gist of the method: as §2
The target in experiment [9] is T1, human CCR8. Nature of the experiment: flow blocking, PBMC CCR8+CD3+; competitor PE-AB5. An outline of the steps:
as §2

In experiment [10] the target is T1, human CCR8. Nature of the experiment: flow blocking, PBMC CCR8+CD3+; competitor PE-AB10. An outline of the steps:
as §2

Experiment [11] addresses T1, human CCR8. Nature of the experiment: flow blocking, PBMC CCR8+CD4+; competitor PE-AB5. An outline of the steps:
as §2

Experiment [12] concerns the target T1, human CCR8. In words: flow blocking, PBMC CCR8+CD4+; competitor PE-AB6.
In experiment [13] the target is T1, human CCR8. In words: flow blocking, PBMC CCR8+CD4+; competitor PE-AB15. An outline of the steps:
as §2

Experiment [14] deals with T1, human CCR8. Nature of the experiment: flow blocking, PBMC CCR8+CD3+; competitor PE-AB13. An outline of the steps: as §2
The target of experiment [15] is T1, human CCR8. In words: flow blocking, PBMC CCR8+CD4+; competitor PE-AB12. An outline of the steps:
as §2

In experiment [16] the target is T1, human CCR8. Nature of the experiment: flow blocking, PBMC CCR8+CD3+; competitor PE-AB7. The gist of the method:
as §2

The target in experiment [17] is T1, human CCR8. In words: flow blocking, PBMC CCR8+CD4+; competitor PE-AB4. An outline of the steps:
as §2

Experiment [18] addresses T1, human CCR8. In words: flow blocking, PBMC CCR8+CD3+; competitor PE-AB14. The gist of the method:
as §2

In experiment [19] the target is T1, human CCR8. Nature of the experiment: flow blocking, PBMC CCR8+CD3+; competitor PE-AB15. The gist of the method:
as §2

Experiment [20] addresses T1, human CCR8. In words: flow blocking, PBMC CCR8+CD4+; competitor PE-AB11. The gist of the method:
as §2

Experiment [21] deals with T1, human CCR8. In words: flow blocking, PBMC CCR8+CD4+; competitor PE-AB3. An outline of the steps: as §2
Experiment [22] has as its target T1, human CCR8. Nature of the experiment: flow blocking, PBMC CCR8+CD4+; competitor PE-AB14. An outline of the steps:
as §1

In experiment [23] the target is T1, human CCR8. Nature of the experiment: flow blocking, PBMC CCR8+CD3+; competitor PE-AB8. The gist of the method: as §2
For experiment [24], the target named is T1, human CCR8. Nature of the experiment: flow blocking, PBMC CCR8+CD4+; competitor PE-AB1. The gist of the method: as §2
The target of experiment [25] is T1, human CCR8. In words: flow blocking, PBMC CCR8+CD3+; competitor PE-L263G8. An outline of the steps: as §2
The target in experiment [26] is human chemokine (C-C motif) receptor 8 (CCR8) (human, UniProt P51685 1-355). Nature of the experiment: cell-based or functional assay.
human chemokine (C-C motif) receptor 8 (CCR8), sequence (P51685 whole entry): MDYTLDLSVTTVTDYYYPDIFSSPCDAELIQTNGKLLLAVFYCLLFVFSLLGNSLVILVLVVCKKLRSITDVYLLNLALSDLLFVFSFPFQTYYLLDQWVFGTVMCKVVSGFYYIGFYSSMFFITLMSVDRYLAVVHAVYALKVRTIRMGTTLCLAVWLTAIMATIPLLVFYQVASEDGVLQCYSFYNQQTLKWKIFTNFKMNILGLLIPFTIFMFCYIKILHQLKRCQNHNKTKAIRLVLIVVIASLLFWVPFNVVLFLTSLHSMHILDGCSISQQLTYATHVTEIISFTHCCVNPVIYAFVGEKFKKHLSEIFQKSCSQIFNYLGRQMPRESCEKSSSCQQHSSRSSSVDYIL

T1 sequence (P51685 whole entry): as above

B1: AB13 (antibody, V domains shown)
VH: EVQLVETGGGLVQPKGSLKLSCAASGFTFNAYAMNWVRQAPGKGLEWVARIRTKSNNYATYYADSVKDRFTISRDDSQTMLYLQMNNLKTEDTAMYYCVRDRATVTTGRAMDYWGQGTSVTVSS
VL: DIVMTQAAPSLPVTPGESVSISCRSSKSLLHSNGNTYLYWFLQRAGQSPQLLIYRMSNLASGVPDRFSGSGSGTAFTLRISRVEAEDVGVYYCMQHLEYPFTFGSGTKLEIK
notes: Hybridoma monoclonal; also called antibody 13; clone 13
In the case of B1, the “% Blocking” value was 95.5% in the experiment with human CCR8 [1]; 21.8% with human CCR8 [2]; 34.7% in the experiment with human CCR8 [3]; 5.33% with human CCR8 [4]; 8.18% in the experiment with human CCR8 [5]; -17.2% with human CCR8 [6]. In addition, the “% Blocking” value with human CCR8 [7] is 96%; with human CCR8 [8], -33.5%; with human CCR8 [9], -14.7%; in the experiment with human CCR8 [10], 8.91%; with human CCR8 [11], -7.92%; in the experiment with human CCR8 [12] it was 1.49%. Moreover, the “% Blocking” value is -34.9% in the experiment with human CCR8 [13]; 24.6% with human CCR8 [14]; 99.4% with human CCR8 [15]; 46.1% in the experiment with human CCR8 [16]; -18.5% with human CCR8 [17]; 30.8% in the experiment with human CCR8 [18]. In addition, the “% Blocking” value with human CCR8 [19] is 30%; with human CCR8 [20], 98%; with human CCR8 [21] it was -19.3%; with human CCR8 [22], 99.2%; with human CCR8 [23], 44.1%; with human CCR8 [24], -36.8%. The “% Blocking” value with human CCR8 [25] turned out to be 11.8%. Besides, the “% Positive cells” value worked out at 0.09% with human CCR8 [1]; 1.15% in the experiment with human CCR8 [3]; 0.06% in the experiment with human CCR8 [7]; 2.19% in the experiment with human CCR8 [8]; 2.18% with human CCR8 [11]; 1.99% with human CCR8 [12]. Also, the “% Positive cells” value came to 1.74% with human CCR8 [13]; 0.01% with human CCR8 [15]; 2.11% in the experiment with human CCR8 [17]; 0.04% in the experiment with human CCR8 [20]; 2.04% with human CCR8 [21]; 0.01% in the experiment with human CCR8 [22]. Moreover, the “% Positive cells” value with human CCR8 [24] was 2.12%. The MFI in the experiment with human CCR8 [2] was determined as 800; with human CCR8 [4], 878; with human CCR8 [5] it was 814; with human CCR8 [6], 1080; in the experiment with human CCR8 [9], 1130; with human CCR8 [10], 726. For the same molecule, the MFI with human CCR8 [14] was determined as 668; in the experiment with human CCR8 [16], 630; with human CCR8 [18], 598; in the experiment with human CCR8 [19], 601; with human CCR8 [23], 664; with human CCR8 [25], 594.

B2: AB7 (antibody, V domains shown)
VH: AVQLVESGGGLVQPKESLKISCAASGFTFSYAAMYWVRQTPGKGLEWVARIRTKPNNYATYYADSVKGRFTISRDDSKSMVYLQMDNLKSEDTAMYYCNIMGITRGYYFDYWGQGVMVTVSS
VL: DIQMTQSPSFLSASVGDRVTINCKASQNINRYLNWYQQQLGEAPKLLIYNANNLQTGIPSRFSGSRSGTDFTLTISSLQPEDVATYFCLQHNSWPWTFGGGTKLELK
For the molecule B2, the “% hCCR8-Ba/F3 - THP-1 complexes” value in experiment [26] stood at 2.2%.

B3: AB6 (antibody, V domains shown)
VH: QVQLKESGPGLVQPSQTLSLTCTVSGFSLTSYHVSWVRQPPGKGLEWMGVIWTGGSTTYNSLLKSRLSISRDISKSQVFLKMNSLQTEDTATYYCARGGTVVKGGFAYWGQGTLVTVSS
VL: DIQMTQSPASLSASLEEIVTITCQASQDIGNRLSWYQQKPGKSPQLLIYGATSLADGVPSRFSGSRSGTQYSLKISRLQVEDIGIYYCLQAYSTPLTFGSGTKLEIK
For the molecule B3, in experiment [26], the “% hCCR8-Ba/F3 - THP-1 complexes” value stood at 1.88%.
